Measured values as given in the DeepSol protein solubility set.

Test: soluble on expression in E. coli; label from the status in PepcDB or PDB records

Sequence | soluble on expression in E. coli
LKMTKVMVSEAGASVYSASELAAKEFPDLDVSIRGAVSIARRLQDPLAELVKIDPKSIGVGQYQHDVSQLKLARGLDAVVEDCVNAVGVDVNTASVALLARISGLNTTLAQNIVAHRDENGAFKTRAALKKVSRLGEKTFEQAAGFLRVMTGDNPLDSSAVHPEAYPLVQRIAAETDRDIRSLIGDASFLKRLDPKKFTDETF | not soluble
MGLLVLGTPLDWPESKKYCDYVRENGIMQFLHMYDTYISKKQDVLLWGDEIECIVVSMDDKSKKARVSLRQEDILNALGKYEETFRHVDFGPVYAALRNETCPKKIDAILSEVAKNPADYVERIGGNSNKDTIEITSSTKPHAQNAVPTFHPEYGRYMLESTPGAPYGSTLKDFTFVEYNMRLRRKIIENHLLPNELPLTITNFFRLGTPGFTDPEVEANGAISRSFFLPDDVINTHVRFPTLTANIRQRRGRKVAMNVPIFFDKNTIKPFHDPTVPWDRNLFPEDANARDGAALDNHIYMDSMGFGMGCCCLQITFQAKSCDEARLLYDQLTPITPLMLALSAGTPAFRGYLADQDCRWNVIAGAVDDRTEEEMKTVPKSRYDSVDLYISNDKRNLPEYNDVPVVINQDCYDKLIKDCIDERLAKHMAHIFSRDPLVIFSDSILQDNSVSNAHFENLNSTNWQSMRFKPPPPGSDIGWRVEFRSMEIQITDFENAAYSIFVVMLSRAILSFNLNLYMPISLVDENMKAAHARDAIHRKKFWFRCNPFPDASTDDESGQFRQLTIDELFNGEHRENGFPGLITIVRSYLYSCNPDAKTICLIERYIRLISQRANGQCLTAASWIRNFITTHPSYKQDSVVNDEINYDLIRRIAKIVDGDYDDTLLGKCS | soluble
MGREFLDLFEQWAESYDQSVEGYDEQYRDVFAGYDRILSTVADKAGQVVLEFGIGTGNLTKKLLERGKTVYGIEPSAPMRKKAAEKLGERAVIMDGDFLQFPLPPEPIDTIASTYAFHHLTDAEKDEAIAKYSQLLHSGGKIVFADTAFRDKEAFRQTVEAARARGFHDLADDLEREYYTTLDVLASLFANHGFSVSFAQQNAFVWVMEAVKQTTLEHHHHHH | soluble
MASEPIQITPNLAIPPGEIVERFVRASGAGGQNVNKVSTAVELRFDVAGSPSLPEPLRARLLSRRDRRMTADGVLVIDAQRFRTQDRNREDARERLAEIINACLSVPKRRVATKPSHGAKLRRLDAKRERSQIKRGRSASHWELEHHHHHH | soluble
MSLIPIRCHAVSGVALSTVQGETRLLMMKRVKGGFWCHVAGTVEAGETGWQTIVREFREETGIVVHELYNGQYLEQFYEHATNTVCLVPVFVVYCPPTQAVTLNHEHTEYRWSTLAEAKALAGFPGQQALYDHLWHYFVENSPSALMRVAMTEGHHHHHH | not soluble
MGSDKIHHHHHHCKPAARSVITESSLIFTSIHSSYVISTYYKRCVVLSQRKEAVQNMNVYQLKEELIEYAKSIGVDKIGFTTADTFDSLKDRLILQESLGYLSGFEEPDIEKRVTPKLLLPKAKSIVAIALAYPSRMKDAPRSTRTERRGIFCRASWGKDYHDVLREKLDLLEDFLKSKHEDIRTKSMVDTGELSDRAVAERAGIGFSAKNCMITTPEYGSYVYLAEMITNIPFEPDVPIEDMCGSCTKCLDACPTGALVNPGQLNAQRCISFLTQTKGFLPDEFRTKIGNRLYGCDTCQTVCPLNKGKDFHLHPEMEPDPEIAKPLLKPLLAISNREFKEKFGHVSGSWRGKKPIQRNAILALAHFKDASALPELTELMHKDPRPVIRGTAAWAIGKIGDPAYAEELEKALEKEKDEEAKLEIEKGIELLKASGMTKQGLS | not soluble
MGSDKIHHHHHHMQATTATPHDIVFLFDCDNTLLDNDHVLADLRAHMMREFGAQNSARYWEIFETLRTELGYADYLGALQRYRLEQPRDTRLLLMSSFLIDYPFASRVYPGALNALRHLGARGPTVILSDGDVVFQPRKIARSGLWDEVEGRVLIYIHKELMLDQVMECYPARHYVMVDDKLRILAAMKKAWGARLTTVFPRQGHYAFDPKEISSHPPADVTVERIGDLVEMDAEWLLAEKR | not soluble
HGSYIDITIDLKHYNGSVFDLRLSDYHPVKKVIDIAWQAQSVSMPPREGHWIRVVNKDKVFSGECKLSDCGITNGDRLEIL | soluble
MLTVTFTVSNTGDRAGAAVPQVYPGFPNTTIDRCVRELKAFRRVELEPGQRQTVTVALTRRDLSYWDILPHPLRSYAVGSILEHHHHHH | not soluble
MAHHHHHHMSVPDLTAEELAYYASLRLEDPDEAALATFLADLEQVHEDHPSDTGAAPSSTVASASGKRGALLTSSRVPACERLDSSDVEGVPPQRRVASVDRQQPSAYAATGLAIRQISAKLFPAPRSATTDSGTRYGVTQVLEKDNLVGGVAGIADAALQTRCVELPARQLTSIAPVQCFLNATHVYLQHNALADLEGVELLSQLQVLVVHHNQLTSLAPLQQLECLSYLDVSHNNVSSSVDVLLRDELPCPSLKSLNLSNNPCWSRCGEAVSDGDGGERHRAYVQQICTACPLLERLDDVVVDDGEEVMQHSDNSTESDVKDVAERRSASAAGAAPSQAGGITVRRVHNSVEAARAASSRACVHDIHTRSSLAPPGSLVSGEAELSARPPRSAQVNKARLLEEEQARLVHQLFLRRAVGTAPGSAKAVDTVSTSPLHSNRSSTGSGHFHPGDAATEAPTEQKANQPADSTGDVSALYSTRGDILHLYHSLQFTQEVSQARLQRDVAAHWDDVSRVLQTVQALQQDRRRRIQQRLQEQTSAYTDSLIMLEKESFTKDLDRYRNSDGSRRAAPAGIHAAASAPAAPPAVDTPNGITAVAHTSAAVDGNCASKASSTSTHPPEKPKGKTKKGPSVPKPPPRR | not soluble
MKVAVTGRPGVGKTTLCLKVHESLKDKMTVGGFITKEVRRDGVRVGFKLVDLSSGNEEWLARVGEGKARVGKYAVNVEGLEEFLDSVRTDADLVIIDEVGPMELKSRKFVRFVENLMGRERLLFTIHLKSRHRLLDRIRREFKVYVIDESNRNRIAEEITRILEGLEHHHHHH | soluble
MIQMSSNDSSEVIRQCLQVLESITSDSSVPRNIRRSVNEIMDILNNESEPLFLRAASSISILEDISNDPNLPLHTRTLIWNLSSQLETIPVDE | not soluble
MGSDKIHHHHHHAMDNYDYETVVTLIEPDCQDSLLLITKAQALKAMNRYPEAIGVLNSLILKDSTNTKVLIDLAECYKLTGNSRRAANCYQKAMNLQPENKFFRLQFIRSLLASEDYEEARTACHGWLERDSLSATGYKYLGQAYEGLQDAASAFLSYNIAYRRDSLDAQTVARIAGIFNNNQQFKDAVDVTEVYRLSDTTNIDVNRQNAKAYCMLKEYGTAVKRYESLKELGDRSFLTLYYLGVSHYGDNWFYGAYDNLKEAYQKNPMDVNVLYYLAKASARTSWKKEGVEYMEEAFRIAVPSDSMMVRLYDGLVECYDYAGDTKKEVEALEKLYIYTKKNSILYKIACLYDWKEDEKNAIRYYRKYMATVSEDQRYALDEDGNPVEDRITLYQQAWKRIKKIKEEGFFRGDIPTKSFPVEKKDTLALRHAK | not soluble
MREEVKTVIKVKTVGDVPAIVSARKSITEGKVKDAIISGYRDVKNDYMRYFGIQQAPDEGERLFIVNTLKGLGIDLPEESIVDGKFIIDRISGMDLASTDPKVACFVKIAEFYLKYYEKAKYSDSVIEDDGEIIERLTGIYNYMDITKLYFKGDDAGVGT | not soluble
HHDITKVDTSGASEITARQDKLTLQGVDASHKLAEHDLVRMNKYKELITRVGQKHGLDPAIIAGIISRESRAGSALDHGWGDHGKGFGLMQVDKRYHKIVGAWDSEKHISQGTEILIEFIRRIQAKFPVWPKEHQLKGGISAYNAGDKNVRTYERMDVGTTGGDYSNDVVARSQWFKSQGY | soluble
MEKIKIIVASDSIGETAELVARAGISQFNPKQCKNELLRYPYIESFEDVDEVIQVAKDTNAIIVYTLIKPEMKQYMSEKVAEFQLKSVDIMGPLMDLLSASVEEKPYNEPGIVHRLDDAYFKKIDAIEFAVKYDDGKDPKGLPKADIVLLGISRTSKTPLSQYLAHKSYKVMNVPIVPEVTPPDGLYDIDPKKCIALKISEEKLNRIRKERLKQLGLGDTARYATEARIQEELNYFEEIVSEIGCPVIDVSQKAIEETANDIIHYIEQNKSKLEHHHHHH | not soluble
